Measured values taken from PMC9606039, “Molecular analysis of a public cross-neutralizing antibody response to SARS-CoV-2” (Cell Reports, 2022).

Target: receptor-binding domain (RBD) (residues 319-541) of the SARS-CoV-2 spike (S) protein (SARS-CoV-2, ancestral Wuhan-Hu-1 …, UniProt P0DTC2)

Row | Binder | binding result
1 | XGv265 (antibody, V domains shown) VH: QITLKESGPTLVKPTQTLTLTCNFSGFSLNTYGVGVGWIRQPPGKALEWLALIYWDGDERYGPFFKNKVTIAKDTSKNQVVLTMTNMDPVDTATYYCARHLIPTIFDYWGQGTLVTVSS VL: QSALTQPASVSGSPGQSITISCTGTSSDVGGSNYVSWYQHHPDRAPKLLIYEVTNRPSGVSNRFSGSKSANTASLTISGLQAEDEADYYCSSYTTTSTHILFGGGTKLTV | binds
2 | XG005 (antibody, V domains shown) VH: QVTLRESGPTLVKPKQTLTLTCTFSGFSLSTPGGGVGWIRQPPGKALEWLALIYWDDDKRYSPSLKSSLTITKDTSKNQVVLTMTNMDPVDTATYYCARLTAADTIFDCWGQGTLVTVSS VL: QSALTQPASVSGSPGLSITISCTATSSDVGAYNYVSWYQQHPGQAPKLMIYDVSKRPSGVSNRFSGSKSANTASLTISGLQAEDEADYYCSSYTTTSVVFGGGTKLTVL | binds
